Results from publication PMC2903434.

Biological target: PAK1 kinase domain (K298R mutant), residues 250-545 from PAK-fl (UniProt Q13153)

Substance: truncated autoinhibitory domain (trunc-AID, residues 83-137) from PAK1 (from UniProt Q13153 83-137) (domain or fragment)
- Kd: 4 µM
